Results on 30 sequences are retold here after the nanobody polyreactivity screen of Harvey et al. (2022).

The nature of the data set: yeast display, Sf9 membrane polyspecificity reagent, FACS + sequencing; frameworks hold sequencing errors. In outline:
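Galactose-induced (36–48 hours) yeast carrying a synthetic nanobody display library were exposed to 10% biotinylated, detergent-solubilized Sf9 membrane reagent at 4 °C for 1 hour. FACS followed streptavidin microbead enrichment, using low and high (top ~1%) gates for expression (anti-HA) and reagent binding (streptavidin). Colony PCR, MiSeq 2 × 250 sequencing and CDR-length filtering followed. Labels for polyreactivity reflect the gate of origin.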
For the sequence “QVQLVESGGGLVQAGGSLRLSCAPSGRIFSHYAMGWYRQAPGKERELVAAITSDGSTNYADSVKGRFTISRDNAKKTVYLQMNSLKPEDTAVYYSAKYVHIPDYYYLFGSYDYWGQGTQVTVSS”, the “polyreactivity (PSR sort gate)” value is given as “low polyreactivity”.

In the case of “QVQLVESGGGLVQAGGSLRLSCAPSGRIFYGYAMGWYRQAPGKERELVAAITSGSRTNYADSVKGRFTISRDNAKNTVYLQMNSLKPEDTAVYYCHSLYGSYLYSLVHTSRYDYWGQGSQVTVSS”, the “polyreactivity (PSR sort gate)” value is “low polyreactivity”.

Take “QVQLVESGGGLVQAGGSLRLSCAPSGRIIYRYAIGWYRQAPRKETDLVAAITIGGRTNYADSVKGRFTISRDNANNPVYLEMISLKPEDTAVYYCAVVLYTRYPPRVRYYYWGQGTQVTVSS”: the “polyreactivity (PSR sort gate)” value was “high polyreactivity”.

Consider “QVQLVESGGGLVQAGGSLRLSCAPSGRISFRYAMGWYRQAPGKERELVAAINRGGITNYADSVKGRFTISRDNAKNTVYLQMNSLKPEDTADYYCAAEGFYDYYNGFDYSGQGTQVTVSS”, for which the “polyreactivity (PSR sort gate)” value is “high polyreactivity”.

Consider “QVQLVESGGGLVQAGGSLRLSCAPSGRTFDQYAMGWYRQAPGKERELVADITWSGGTTRYADSVKGRFTISRDHAKNTVYLQMNSLKPEDTAVYYCAVEVTWGYNYWGQVTQVTVSS”, for which the “polyreactivity (PSR sort gate)” value is listed as “low polyreactivity”.

For “QVQLVESGGGLVQAGGSLRLSCAPSGRTFGRYAMGWYRQAPGKERELVAAITRSGGSTYYADSVKGRFTISRDIAKNTVYLQMNSLKPEDTAVYYCNAGWRLGRGYWGQGTEVTVSS”, the “polyreactivity (PSR sort gate)” value is “high polyreactivity”.

Consider “QVQLVESGGGLVQAGGSLRLSCAPSGRTFGVYAMGWYRQAPGKERELVATISFNVASTYADSVKGRFTISRDNAKNTVYLQMNSLKPEDTAVYYCAVTAVRPLPLDSGYDYWGQGTQVTVSS”, for which the “polyreactivity (PSR sort gate)” value is on record as “low polyreactivity”.

As to “QVQLVESGGGLVQAGGSLRLSCAPSGRYYAMGWNRQAPGKEREMVAAISSGGSTNYADSVKGRFTISRDNAKNTVYLQMNSLKPEDTAVYYCAALIRQLRYYLYYYWGQGTQVTVSS”, the “polyreactivity (PSR sort gate)” value is given as “high polyreactivity”.

For the sequence “QVQLVESGGGLVQAGGSLRLSCAPSGSIFAQYAMGWYRQAPGKERELVATISSVGSTNYADSVKGRFTISRDNAKNTVYLQMNSLKPEDTAVYYCNAVRSGWGYFYGLNYWGQGTQVTVSS”, the “polyreactivity (PSR sort gate)” value is recorded as “low polyreactivity”.

For the sequence “QVQLVESGGGLVQAGGSLRLSCAPSGSIFDCNAMGWYRQAPGKERELVAAISVSGGSTYYADSVKGRFTISRDNAKNTVYLQMNSLKPEDKAVYYCAAETWTDGWYYDYWGQGTQVTVSS”, the “polyreactivity (PSR sort gate)” value is listed as “high polyreactivity”.

For “QVQLVESGGGLVQAGGSLRLSCAPSGSIFGSYAMGWYRQAPGKERELVAAIRRSSASTYYADSVKGRFTISRDNAKNTVYLQMNSLKPEDTAVYYCATQSYSYYGYRYRYAAYDYWGQGTQVTVSS”, the “polyreactivity (PSR sort gate)” value is recorded as “high polyreactivity”.

For “QVQLVESGGGLVQAGGSLRLSCAPSGSIFGYYTMGCYRQAPGKEREFVAAISYSGGSTYYADSVKGRFTISRDNANNTVYLQMNSLKPEDTAVYYCAARLYYFRGFKYYYWGQGTQVTVSS”, the “polyreactivity (PSR sort gate)” value is listed as “low polyreactivity”.

Consider “QVQLVESGGGLVQAGGSLRLSCAPSGSIFHYYAMGWYRQAPGKERELVAAISWSGGRTNYADSVKGRFTISSDNAKNTVYLQMNSLKPEDTAVYYCAAGNSFSDRGHRVYFQYYYWGQGTQVTVSS”, for which the “polyreactivity (PSR sort gate)” value is given as “high polyreactivity”.

As for “QVQLVESGGGLVQAGGSLRLSCAPSGSIFIRNAMGWYRQAPGKERELVAAISGSGSSTYYADSVKGRFTISRDNAKNTVYLQMNSLKPEDTAVYYCNTDRTHSYQYGGYDYWGQGTQVTVSS”, the “polyreactivity (PSR sort gate)” value is listed as “low polyreactivity”.

In the case of “QVQLVESGGGLVQAGGSLRLSCAPSGSIFRGYAMGWYRQAPGKERELVAAISSGGSTYYADSVKGRFTISRDNAKNTVDLQMNSLKPEDTAVYYCATSTYAYRRISYYSWGQCTQVTVSS”, the “polyreactivity (PSR sort gate)” value is recorded as “high polyreactivity”.

In the case of “QVQLVESGGGLVQAGGSLRLSCAPSGSIFRLYAMGWYRQAPGKERELVAAITSSGGRTYYADSVKGRFTISRDNAKNTVYLQINSLKPVDTAVYYCAAVGNRGDDYYWGQGTQVTVSS”, the “polyreactivity (PSR sort gate)” value is “high polyreactivity”.

On to “QVQLVESGGGLVQAGGSLRLSCAPSGSIFRWYAMGWYRQAPGKERELVAAITSGGSTYYADSVKGRFTISRDNAKNTVYVQMNSLKPEDTAVYYCNAAKLASHTYDYWGQGTQVTVSS”, for which the “polyreactivity (PSR sort gate)” value is given as “low polyreactivity”.

In the case of “QVQLVESGGGLVQAGGSLRLSCAPSGSILGSNAMGGYRQAPGKERELVAAITSSGGSTYYADSVKGRFTISRDNAKNTVYLQMNSLKPEDTAVYYCNADATDSYPEKDYHDSWGQGTQVTVSS”, the “polyreactivity (PSR sort gate)” value is “low polyreactivity”.

As to “QVQLVESGGGLVQAGGSLRLSCAPSGSIYDDYAMGWYRQAPGKERELVAAISSSGTSTYYADSVKGRFTISRDNAKNTVYLQMIRLKPEDTAGYYCAARSAILKSGYLMDYWGQGTLVTVSS”, the “polyreactivity (PSR sort gate)” value was “low polyreactivity”.

Take “QVQLVESGGGLVQAGGSLRLSCAPSGSTFGSNAMGWYRQAPGKERELVAAINSGDSTSYADSVKGRFTISRDNAKNTVYLQMNSLKPEDTAGYYCATRSYTFVWRHDYWGQGTQVTVSS”: the “polyreactivity (PSR sort gate)” value is reported as “low polyreactivity”.

In the case of “QVQLVESGGGLVQAGGSLRLSCAPSGSTFGWYAMGWYRQAPGKESELFAAITGDSASTYYADSVKGRFTISRDNAKNTVYLQMNSLKQEDTAVYYCAATKFSDFAYEAVIGYGYWGQGTQVTVSS”, the “polyreactivity (PSR sort gate)” value is “low polyreactivity”.

In the case of “QVQLVESGGGLVQAGGSLRLSCAPSGSTFSGYAMGWYRQAPGKEREFVATISISGCSTYYADSVKGRFTISRDNAKNTVYLQMNSLKPEDTAVYYCAKDSGSYRVGIYEPFPYGYWGQGTQVTVSS”, the “polyreactivity (PSR sort gate)” value was “low polyreactivity”.

Turning to “QVQLVESGGGLVQAGGSLRLSCAPSGSTFSHNAMGWYRQAPGKEREFVAAISWSGGGTYADSVKGRFTISRDYAKNTVYLQMNSLKPEDTAVYYCNKVSYRSSSSSWFDYWGQGTQVTVSS”, the “polyreactivity (PSR sort gate)” value is “low polyreactivity”.

For the sequence “QVQLVESGGGLVQAGGSLRLSCAPSGSTFTHNALGWYRQAPGKERELVAAINNRGGTTYYADSVKGRFTISRDNAKNTVLLQMNSLKPEDIAVYYCNARYHYGRYGYWGQGTQVTVSS”, the “polyreactivity (PSR sort gate)” value is reported as “high polyreactivity”.

In the case of “QVQLVESGGGLVQAGGSLRLSCAPSGSTFYPYAMGWYRQAPGKEREFVAAIRSSGTSTYYADSVKGRFTISRDNAKNTVYLQMNSLKPEDTAVYYCAARVRGYSVTRTKPASIGGGSWGQGTQVTVSS”, the “polyreactivity (PSR sort gate)” value is on record as “high polyreactivity”.

With “QVQLVESGGGLVQAGGSLRLSCAPSGSTFYRYAMGWYRQAPGKERELVAAISSSGGRTYYADSVKGRFTISRDNAKNTDYLQMNSLKPEDTAVYYCAADYTKHYWGQGTQVTVSS”, the “polyreactivity (PSR sort gate)” value is listed as “high polyreactivity”.

As to “QVQLVESGGGLVQAGGSLRLSCAPSGSTSYLYAMGWYRQAPGKERELVATITTRSGSTYYADSVKGRFTISRDNAKNTVYIQMNSLKPEDTAVYYCAARWISVWSEGAEHDYWGQGTQVTVSS”, the “polyreactivity (PSR sort gate)” value was “low polyreactivity”.

As to “QVQLVESGGGLVQAGGSLRLSCAPSRFIFFFYAMGWYRQAPGKERELVAAISDGVSTYYADSVKGRFTISRDNAKNTVYLQKNSLKPDDTAVYYCAVSRGDDPEFDYWGKGTQVTVSS”, the “polyreactivity (PSR sort gate)” value is recorded as “low polyreactivity”.

Regarding “QVQLVESGGGLVQAGGSLRLSCAPSRFIFGHYAMGWYRQAPGKERELVAGINSSGGSTHYADSVKGRFTISRDNAKNTVYLQMNSLKPEDTAVYYCAADVYRFYAGSRYYYWGQGTQVTVSS”, the “polyreactivity (PSR sort gate)” value is recorded as “low polyreactivity”.

With “QVQLVESGGGLVQAGGSLRLSCAPYGLTFYGYTMGWYIQAPGKQRELVASISWSGGNKYYADSVKGRFTISRDKAKNSVYLQMNSLKPEDTAVYYCAAEHWTYDCVDYWGQGTQVTVSW”, the “polyreactivity (PSR sort gate)” value was “low polyreactivity”.
